From patent US20170009288, “METHOD FOR CONTROLLED DNA FRAGMENTATION” (THERMO FISHER SCIENTIFIC BALTICS UAB, published 2017)

B1: Control native Mu transposon end (dsDNA)
DNA 1: GTTTTCGCATTTATCGTGAAACGCTTTCGCGTTTTTCGTGCGTCAGTTCA
DNA 2: TGCTGAACTGACGCACGAAAAACGCGAAAGCGTTTCACGATAAATGCGAAAAC
B2: Transposon No. 9 (dsDNA)
DNA 1: GTTCTCGCATCTATCGTGAAAAGCTTCTCCGTTCTTCGGCCGCCGCTTCA
DNA 2: TGCTGAAGCGGCGGCCGAAGAACGGAGAAGCTTTTCACGATAGATGCGAGAAC

Columns and labels:
MuA transposase [1] = target: T1, MuA transposase (UniProt P07636 P07636:1-663); test: EMSA; strong complex; 2% agarose with BSA and heparin, 1xTBE; assembled 30 C 1 h; details: tags: Thermo Scientific F-750 (stand-alone MuA transposase); chain copies: 4; 5' overhang TGCT side of non-transferred strand
Procedure: (§1) In parallel, EMSA analysis was performed for all pre-formed MuA-transposon complexes used in the first experiment (Table 3). DNA shifts resulting from transposome complex formation were analyzed using agarose gel electrophoresis in 2% agarose gel containing 87 μg/ml BSA and 87 μg/ml heparin in 1×TBE buffer. DNA was stained with ethidium bromide. […] Weaker complexes were formed with transposons No. 5, 10, 11.

MuA transposase [2] = target: T1, MuA transposase; test: EMSA; no apparent complex formation; details: tags: Thermo Scientific F-750 (stand-alone MuA transposase); chain copies: 4
Procedure: as §1

T1 sequence (P07636 whole entry, one chain of several): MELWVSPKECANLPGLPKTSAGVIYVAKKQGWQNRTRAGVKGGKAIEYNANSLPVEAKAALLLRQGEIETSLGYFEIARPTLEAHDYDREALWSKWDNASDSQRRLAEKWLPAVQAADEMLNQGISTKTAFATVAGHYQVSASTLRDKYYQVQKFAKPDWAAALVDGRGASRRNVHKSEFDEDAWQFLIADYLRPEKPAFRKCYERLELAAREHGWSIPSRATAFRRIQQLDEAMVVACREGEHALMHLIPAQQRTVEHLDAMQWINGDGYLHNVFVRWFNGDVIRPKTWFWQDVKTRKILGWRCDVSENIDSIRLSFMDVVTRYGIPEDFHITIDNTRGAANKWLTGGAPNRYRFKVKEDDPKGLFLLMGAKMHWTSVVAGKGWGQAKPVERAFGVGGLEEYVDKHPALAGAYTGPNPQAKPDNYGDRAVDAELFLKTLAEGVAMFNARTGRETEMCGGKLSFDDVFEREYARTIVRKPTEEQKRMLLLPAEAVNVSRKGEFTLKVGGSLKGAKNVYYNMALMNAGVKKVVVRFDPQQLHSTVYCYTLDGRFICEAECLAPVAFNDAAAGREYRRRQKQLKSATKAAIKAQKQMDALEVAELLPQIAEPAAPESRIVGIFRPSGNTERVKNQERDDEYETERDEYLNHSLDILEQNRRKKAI

Binder	binding result (MuA transposase [1])	binding result (MuA transposase [2])
B1	binds	
B2		no binding
